Data from patent US20170369592A1, “NOVEL ANTI-FIBROBLAST ACTIVATION PROTEIN (FAP) ANTIBODIES AND USES DERIVED THEREOF” (Mabimmune Diagnostics AG, priority 2015, published 2017).

Key:
FAP from human plasma = target: T1, FAP from human plasma (Homo sapiens, UniProt Q12884); test: Immunoprecipitation of FAP from human plasma, α2AP-AMC cleavage in supernatant; type: biochemical; settings: compared to plasma before immunoprecipitation
T1 construct: from tissue; host or cells: human blood plasma
T1 sequence (Q12884 24-760 limits assumed): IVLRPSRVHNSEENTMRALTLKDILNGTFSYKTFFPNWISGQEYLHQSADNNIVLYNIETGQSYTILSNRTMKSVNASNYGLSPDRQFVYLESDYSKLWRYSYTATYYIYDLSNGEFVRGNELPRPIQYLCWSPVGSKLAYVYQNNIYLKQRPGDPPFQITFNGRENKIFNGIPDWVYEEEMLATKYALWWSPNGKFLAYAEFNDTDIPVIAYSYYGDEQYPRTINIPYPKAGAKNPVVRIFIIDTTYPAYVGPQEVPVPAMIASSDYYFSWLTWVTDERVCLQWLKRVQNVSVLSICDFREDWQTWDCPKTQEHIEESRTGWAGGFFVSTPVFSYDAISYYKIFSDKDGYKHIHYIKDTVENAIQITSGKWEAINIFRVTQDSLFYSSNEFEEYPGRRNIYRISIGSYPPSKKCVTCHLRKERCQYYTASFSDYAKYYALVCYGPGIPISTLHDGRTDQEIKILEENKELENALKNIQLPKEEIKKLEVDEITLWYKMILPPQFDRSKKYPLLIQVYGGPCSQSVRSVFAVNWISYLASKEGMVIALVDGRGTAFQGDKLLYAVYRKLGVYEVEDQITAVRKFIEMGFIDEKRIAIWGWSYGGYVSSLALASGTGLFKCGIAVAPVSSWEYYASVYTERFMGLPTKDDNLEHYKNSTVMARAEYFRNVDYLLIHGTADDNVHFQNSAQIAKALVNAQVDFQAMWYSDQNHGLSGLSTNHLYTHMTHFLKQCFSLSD
Method: 100 μL of PureProteome G Magnetic Beads (Millipore LSKMAGG02) were suspended in 500 μL of 25 mM TRIS, 0.15M NaCl, and 0.1% Tween 20. Human plasma was diluted 1:5 in PBS to an end volume of 125 μL, separated into four tubes, and incubated for 30 min at RT with rotation. Beads were then collected with a magnetic stand, and the pre-cleared supernatant was transferred to a new tube containing magnetic beads coated with 82C2, 43A11, or 3A1. Antibody-conjugated beads were incubated with the plasma dilution overnight at 4° C. while rotating. Beads were then collected with a magnetic stand and the supernatant was removed of analysis of α2AP-AMC cleavage activity. To determine α2AP-AMC activity in the supernatants, a half area black 96 well plate was blocked with sterile filtered 5% BSA at 37° C. for 1h. Then 40 μL of PBS was added to all the wells, 5 μL of the supernatant solutions to the appropriate wells, and 5 μL of α2AP-AMC solution in methanol was added for a final assay concentration of 10 μM. The fluorescence intensity (cleaved AMC) was measured at 360 nm excitation and 460 nm emission every 3 min over a total time of 30 min and the reaction velocity was calculated using Graphpad Prism 6 software.

[1] = system: carotid artery photochemical injury-induced thrombosis; test: Carotid artery photochemical injury-induced thrombosis model; type: in vivo, mouse; settings: 95% confidence interval=0.01-0.16, p<0.0001
Method: The carotid artery photochemical injury-induced thrombosis model begins with anesthesia by intraperitoneal injection of sodium pentobarbital (87 mg/kg body weight). After slight tail warming (using warm water) rose bengal (10 mg/mL in PBS) is injected into the tail vein in a volume of 0.12 mL at a concentration of 50 mg/kg. Mice will then be secured in a supine position (with the head pointing towards the operator) and placed on a heating pad (rectal temperature will be monitored) under a dissecting microscope. Following a (2.5-3 cm) midline cervical incision and a small incision of the larynx to provide a tracheostoma, by blunt preparation the right common carotid artery is exposed and cleared of connective tissue. A surgical stitch is employed to fix the stemocleidomastoid muscle aside to the right and increase access area to the right carotid artery. Care must be taken to avoid excessive vessel manipulation during procedures. […] Flow will be measured during these 60 minutes and for further 60 minutes (max time elapse 120 minutes) or until occlusion occurs. […]
Mice will be placed on a heating pad, to avoid a drop of body temperature. Heart rate (probe measuring the blood flow will also measure the heart rate) will be monitored during the surgery. […]

- rate of FAP substrate alpha 2 anti-plasmin (α2AP-AMC) cleavage in plasma after immunoprecipitation (FAP from human plasma): significantly reduces
B1: NI-206.82C2: recombinant human memory B cell-derived monoclonal anti-FAP IgG1 antibody, variable regions in FIG. 1A, FAP inhibitory (antibody, V domains shown)
VH: QVQLQQSGPGLVKPSQTLSLTCAISGDSVSSNSVTWNWIRQSPSRGLEWLGRTYYRSKWYNDYAVSVKGRITINPDTSKNQFYLQLKSVTPEDAAVYYCARDSSILYGDYWGQGTLVTVSS
VL: QAVLTQPSSLSASPGASASLTCTLPSGINVGTYRIFWFQQKPGSPPQYLLSYKSDSDNHQGSGVPSRFSGSKDASANAGILLISGLQSEDEADYYCMIWHSSAWVFGGGTKLTVL
- Log-rank hazard ratio, arterial occlusion versus 43A11 [1]: 0.04
